Assay results taken from paper PMC12350261.

Key:
[1] = molecular target: human D-glucuronyl C5-epimerase Glce^167-617 (human); experiment: dynamic light scattering; DynaPro NanoStar, room temperature, 2 uM Glce^167-617; hydrodynamic radius turned into an estimated molecular weight
[2] = molecular target: human D-glucuronyl C5-epimerase Glce^167-617 (human); experiment: SEC; Superdex 200 10/300 GL, 18 C, 20 mM Tris-HCl pH 8.0, 200 mM NaCl, 1 mM DTT, 100 ug loaded, calibrated with gel filtration standard; apparent molecular weight
[3] = molecular target: human D-glucuronyl C5-epimerase Glce^167-617 (human); experiment: crystal structure; apo Glce^167-617, sitting-drop vapour diffusion at 20 C, 0.2 M ammonium sulfate, 0.1 M Tris pH 8.5, 22% PEG 3,350; space group C 1 2 1, two molecules in the asymmetric unit; 2.88 A

Measured: stoichiometry N

human D-glucuronyl C5-epimerase Glce^167-617 (domain or fragment)
2: [1] | [2] | [3]
